From US20040087498A1, “Modified factor VII” (Novo Nordisk Health Care AG, priority 1991, published 2004)
Where two headings read alike, the source gives them in different places. Blank lines part the entries; values can stand above or below the molecule they belong to.

Tests used:
[1] = molecular target: tissue factor preparation, saline extract of baboon brain (baboon)
[2] = molecular target: purified recombinant soluble tissue factor
[3] = molecular target: cell-surface tissue factor on baboon smooth muscle cells (baboon)
[4] = molecular target: T1, cell-surface tissue factor on rat smooth muscle cells (Rattus norvegicus, UniProt P42533); test: Dose-dependent cell-surface chromogenic activity on rat smooth muscle cells; assay type: cell-based
T1 construct: endogenous in cells; host or cells: rat vascular smooth muscle cells
T1 sequence (P42533 29-295): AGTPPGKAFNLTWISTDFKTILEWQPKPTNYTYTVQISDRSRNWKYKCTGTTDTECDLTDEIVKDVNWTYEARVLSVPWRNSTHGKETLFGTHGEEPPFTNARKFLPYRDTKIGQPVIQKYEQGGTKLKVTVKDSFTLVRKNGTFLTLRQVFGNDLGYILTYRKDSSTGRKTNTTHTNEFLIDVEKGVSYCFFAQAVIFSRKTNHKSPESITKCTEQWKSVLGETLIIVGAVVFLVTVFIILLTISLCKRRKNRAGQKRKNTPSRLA
Description: Rat vascular smooth muscle cells were plated into 96-well culture dishes at 4,000 cells per well in growth medium supplemented with 1% fetal calf serum (as in Table 4 without 10% fetal calf serum). […] The cells were incubated with the Factor VII mixtures for 2 hours at 37° C. After incubation, the cells were washed and incubated with 50 μl of 200 nM Factor X in tris buffered saline for 5 minutes at room temperature. Each well had 25 μl of 0.5 M EDTA and 25 μl of […] S-2222 (Kabi Pharmacia) added to it, and the plates were incubated for 40 minutes at room temperature. Chromogenic activity was analyzed at 405 nm in a microplate reader as described above.

[5] = molecular target: T2, cell-surface tissue factor on rat vascular smooth muscle cells (Rattus norvegicus, UniProt P42533); test: Inhibition of cell-surface chromogenic activity by DEGR-Factor VIIa; assay type: cell-based; settings: 10 nM Factor VIIa; cells stimulated with 10% fetal calf serum
T2 construct: endogenous in cells; host or cells: rat vascular smooth muscle cells
T2 sequence (P42533 29-295): T1 sequence (P42533 29-295)
Description: Rat vascular smooth muscle cells were plated into 96-well culture dishes as described above. The cells were cultured for 72 hours in serum free media as described above and treated with the addition of 10% fetal calf serum for 6 hours to stimulate tissue factor expression. […] The cells were incubated for 2 hours at 37° C., then washed with HEPES buffer. After washing, the cells were incubated for 5 minutes with […] per well of 200 nM Factor X in Tris-buffered saline supplemented with 5 mM CaCl2. Twenty-five microliters of 0.5 M EDTA and 25 μl of S-2222 (800 μM) chromogenic substrate (Kabi Pharmacia) were added to each well. The cells were incubated at room temperature for 40 minutes. Chromogenic activity was analyzed at 405 nm as described above.

[6] = molecular target: T2, cell-surface tissue factor on rat vascular smooth muscle cells; test: Factor Xa generation on rat smooth muscle cells (S-2222); assay type: cell-based; settings: 10 nM Factor VIIa
Description: Vascular smooth muscle-cells were analyzed for the presence of cell-surface tissue factor by measuring the ability of the cells to stimulate the conversion of Factor X to Factor Xa using a chromogenic substrate that is specific for Factor Xa.
Rat vascular smooth muscle cells (Clowes et al., J. Clin. Invest. 93:644-651 (1994)) were plated into 96-well culture dishes (American Scientific Products, Chicago, Ill.) at 8,000 cells per well in growth media (Table 4).
After a 48 hour incubation at 37° C. the medium was changed to serum free medium (Table 5).
The cells were incubated 72 hours at 37° C. After incubation, either PDGF-BB (10 ng/ml) or 10% fetal calf serum was added to the cells to stimulate tissue factor expression (Taubman et al., J. Clin. Invest, 21:547-552, 1993). A parallel set of cells received neither PDGF nor serum to monitor for intrinsic activity of unstimulated cells. […] The cells were incubated for 2 hours at 37° C. and washed with HEPES buffer (10 mM HEPES, 137 mM NaCl, 4 mM KCl, 5 mM CaCl2, 11 mM glucose, 0.1% BSA). After washing, cells were incubated for 5 min with 50 μl per well of 200 nM plasma-purified human Factor X in a Tris-buffered saline supplemented with 5 mM CaCl2. Twenty-five microliters of 0.5 M EDTA and 25 μl of an 800 μM solution of S-2222 chromogenic substrate (Kabi Pharmacia, Franklin, Ohio) were added to each well. The plates were incubated for 40 min at room temperature, then analyzed at 405 nm using a THERMOMAX microplate reader (Molecular Devices, Menlo Park, Calif.).

[7] = tested on: Factor VII-deficient plasma; test: One-stage clotting assay of coagulant activity; assay type: biochemical, human
Description: The ability of the modified Factor VII protein to inhibit clotting was measured in a one-stage clotting assay using wild-type Factor VII as a control. Recombinant proteins were prepared essentially as described above from cells cultured in media containing 5 μg/ml vitamin K. Varying amounts of the modified Factor VII (from clone 544) or recombinant wild-type Factor VII were diluted in 50 mM Tris pH 7.5, 0.1% BSA to 100 μl. The mixtures were incubated with 100 μl of Factor VII-deficient plasma (George King Bio-Medical Inc., Overland Park, Kans.) and 200 μl of thromboplastin C (Dade, Miami, Fla.; contains rabbit brain thromboplastin and 11.8 mM Ca^++). The clotting assay was performed in an automatic coagulation timer (MLA Electra 800, Medical Laboratory Automation Inc., Pleasantville, N.Y.), and clotting times were converted to units of Factor VII activity using a standard curve constructed with 1:5 to 1:640 dilutions of normal pooled human plasma (assumed to contain-one unit per ml Factor VII activity; prepared by pooling citrated […] from healthy donors). […] Factor VII activity is seen as a reduction in clotting time over control samples.

[8] = molecular target: T3, tissue factor (thromboplastin) (Oryctolagus cuniculus, UniProt P24055); test: One-step clotting mixing assay with a limiting amount of tissue factor; assay type: biochemical, rabbit
T3 construct: contains rabbit brain thromboplastin; purchased Dade, Miami, Fla. thromboplastin-C; host or cells: rabbit brain extract
T3 sequence (P24055 33-292): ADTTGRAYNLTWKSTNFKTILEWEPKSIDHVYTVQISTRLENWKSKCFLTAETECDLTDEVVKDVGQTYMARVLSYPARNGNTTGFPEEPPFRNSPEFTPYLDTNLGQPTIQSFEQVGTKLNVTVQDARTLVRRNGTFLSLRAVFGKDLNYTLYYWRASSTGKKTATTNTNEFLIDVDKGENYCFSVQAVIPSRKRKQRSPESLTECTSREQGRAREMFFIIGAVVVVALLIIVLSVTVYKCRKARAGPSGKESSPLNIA
Description: The ability of the modified Factor VII to compete with wild-type Factor VII for tissue factor and inhibit its clotting activity was assessed in a one-step clotting assay in the presence of a limiting amount of tissue factor (thromboplastin).
Clotting times were determined in a one-step assay similar to that described in Example II. A limited amount of tissue factor, a constant amount of wild type Factor VII, and increasing amounts of variant Factor VII were used in the mixing experiments. An inhibition of Factor VII/VIIa procoagulant activity would be seen as an increase in clotting time in assays containing increasing amounts of variant Factor VII.
The amount of Factor VII activity in the test samples was calculated as a percentage of a standard curve that measured Factor VII activity in normal pooled plasma. The standard curve for Factor VII activity was generated using serial dilutions of normal pooled plasma in phosphate buffered solution (PBS) that ranged from 1:5 to 1:640. For this purpose it was assumed that normal plasma contains approximately 500 ng/ml of Factor VII and this was considered to be one unit of activity. A mixture of 100 μl Factor VII-deficient plasma, 100 μl plasma dilution and 200 μl of thromboplastin-C (Dade, Miami, Fla.) was used to measure clotting time on a MLA Electra 800 automatic timer. To establish the standard curve, the results were graphed as percentage of activity (1:5=100% activity) versus clotting time in seconds.
The assay required that the medium containing the wild type and variant Factor VII be composed of less than one percent serum. The dilutions were made in PBS so that clotting times would fall along the standard curve. A minimum dilution of 1:2 was typical. The final volume was 100 μl. Two different human Factor VII Ser344→Ala variants, designated clones “#10” and “#6” were tested in the experiments.

[9] = in vivo; cited from earlier work
[10] = molecular target: tissue factor (thromboplastin C, rabbit brain thromboplastin) (rabbit) (UniProt P24055)
[11] = molecular target: T4, cell-surface tissue factor on rat vascular smooth muscle cells (rat) (UniProt P42533)
T4 sequence: T1 sequence (P42533 29-295)

[12] = molecular target: purified recombinant soluble tissue factor; remark: listed apart in the source
[13] = molecular target: T4, cell-surface tissue factor on rat vascular smooth muscle cells (rat); remark: listed apart in the source
[14] = molecular target: T4, cell-surface tissue factor on rat vascular smooth muscle cells (rat); remark: listed apart in the source
[15] = variant medium 10 μl + B4A1 (wild type) medium 10 μl
[16] = variant medium 20 μl + B4A1 (wild type) medium 10 μl
[17] = variant medium 30 μl + B4A1 (wild type) medium 10 μl
[18] = variant medium 40 μl + B4A1 (wild type) medium 10 μl
[19] = variant medium 50 μl + B4A1 (wild type) medium 10 μl

Molecule: DEGR-Factor VIIa (from UniProt P08709) (enzyme)
Clotting time [1]: 158 s
OD405 (Factor Xa chromogenic activity, S-2222) [2]: 0.055 OD405
inhibition of Factor Xa chromogenic activity on baboon smooth muscle cells [3]: > 90%

Molecule: Modified Factor VII (#6): human Factor VII Ser344→Ala variant, clone #6
Clotting time ([7]; dilution 1:1): 33.5 s
Percent FVIIa Activity [8, 15]: 74%
Percent FVIIa Activity [8, 16]: 56%
Percent FVIIa Activity [8, 17]: 46%
Percent FVIIa Activity [8, 18]: 41%
Percent FVIIa Activity [8, 19]: 32%

Molecule: Modified Factor VII (#10): human Factor VII Ser344→Ala variant, clone #10
Clotting time ([7]; dilution 1:1): 32.5 s
Percent FVIIa Activity [8, 15]: 70%
Percent FVIIa Activity [8, 16]: 51%
Percent FVIIa Activity [8, 17]: 43%
Percent FVIIa Activity [8, 18]: 34%
Percent FVIIa Activity [8, 19]: 28%

Molecule: Wild-type Factor VII: recombinant wild-type Factor VII used as a control
Clotting time ([7]; dilution 1:20): 19.0 s
Clotting time ([7]; dilution 1:40): 21.5 s
Clotting time ([7]; dilution 1:80): 23.3 s

Molecule: heparin
half-life [9]: approximately 80 minutes

Molecule: human Factor VII Ser344→Ala variant (from UniProt P08709) (enzyme)
Percent FVIIa Activity [10]: 28%

B1: #10 (−K): Ser344→Ala variant clone #10 expressed by cells grown without vitamin K (protein, UniProt P08709 1-466, looked up, variant S344A)
chain: MVSQALRLLCLLLGLQGCLAAGGVAKASGGETRDMPWKPGPHRVFVTQEEAHGVLHRRRRANAFLEELRPGSLERECKEEQCSFEEAREIFKDAERTKLFWISYSDGDQCASSPCQNGGSCKDQLQSYICFCLPAFEGRNCETHKDDQLICVNENGGCEQYCSDHTGTKRSCRCHEGYSLLADGVSCTPTVEYPCGKIPILEKRNASKPQGRIVGGKVCPKGECPWQVLLLVNGAQLCGGTLINTIWVVSAAHCFDKIKNWRNLIAVLGEHDLSEHDGDEQSRRVAQVIIPSTYVPGTTNHDIALLRLHQPVVLTDHVVPLCLPERTFSERTLAFVRFSLVSGWGQLLDRGATALELMVLNVPRLMTQDCLQQSRKVGDSPNITEYMFCAGYSDGSKDSCKGDAGGPHATHYRGTWYLTGIVSWGQGCATVGHFGVYTRVSQYIEWLQKLMRSEPRPGVLLRAPFP
modifications: expressed without vitamin K
notes: Ser344→Ala variant clone #10 expressed by cells grown without vitamin K
Percent FVIIa Activity [8, 16]: 78%

The next lines start with the values.

OD405 ([4]; Factor VIIa 1.56 nM alone): .058
OD405 ([4]; Factor VIIa 6.25 nM alone): .111
OD405 ([4]; Factor VIIa 25.00 nM alone): .154
OD405 ([4]; Factor VIIa 100.00 nM alone): .208
OD405 ([4]; Factor VIIa .10 nM alone): .005
OD405 ([4]; Factor VIIa .39 nM alone): .025
OD405 [5]: .342
OD405 ([6]; Intrinsic (unstimulated cells)): .247
OD405 ([6]; cells stimulated with 10% FCS): .342
OD405 ([6]; cells stimulated with PDGF-BB (10 ng/ml)): .360
Molecule: Factor VIIa: Recombinant human Factor VIIa, activated two-chain form [reference compound]

Percent FVIIa Activity [10]: 78%
Molecule: human Factor VII Ser344→Ala variant expressed without vitamin K (from UniProt P08709) (enzyme)

OD405 (Factor Xa chromogenic activity, S-2222) [11]: 0.36 OD405
OD405 (Factor Xa chromogenic activity, S-2222) [12]: 0.79 OD405
OD405 (Factor Xa chromogenic activity, S-2222) [13]: 0.208 OD405
OD405 (Factor Xa chromogenic activity, S-2222) [14]: 0.342 OD405
Molecule: recombinant human Factor VIIa (from UniProt P08709) (enzyme)

Percent FVIIa Activity [8, 16]: 85%
B2: #6 (−K): Ser344→Ala variant clone #6 expressed by cells grown without vitamin K (protein, UniProt P08709 1-466, looked up, variant S344A)
chain: B1 chain
modifications: expressed without vitamin K
notes: Ser344→Ala variant clone #6 expressed by cells grown without vitamin K
